In publication PMC10602870:

Key:
Assay in all cases: native gel or EMSA; binding titrations of 80N0 nucleosomes with Chd1 in the presence of AMP-PNP and salmon sperm competitor DNA; observed (apparent) Kd; read from gels (Supplementary Figure S6)
[1] = molecular target: 80N0 Widom 601 nucleosome with 2 bp DNA mismatches at both SHL2.7 sites (SHL+/-2.7, 27 bp from the dyad), Xenopus laevis histone octamer with H2B(S53C) (Xenopus laevis)
[2] = molecular target: 80N0 nucleosome, canonical Widom 601 DNA, Xenopus laevis histone octamer with H2B(S53C) (Xenopus laevis)
[3] = molecular target: 80N0 Widom 601 nucleosome with 2 bp DNA mismatches at both SHL2 sites (SHL+/-2, 20 bp from the dyad), Xenopus laevis histone octamer with H2B(S53C) (Xenopus laevis)
[4] = molecular target: 80N0 Widom 601 nucleosome with pairs of abasic sites at both SHL2 sites (SHL+/-2, 20 bp from the dyad), Xenopus laevis histone octamer with H2B(S53C) (Xenopus laevis)
[5] = molecular target: 80N0 Widom 601 nucleosome with pairs of abasic sites at both SHL2.7 sites (SHL+/-2.7, 27 bp from the dyad), Xenopus laevis histone octamer with H2B(S53C) (Xenopus laevis)

Kd [1]: 22.2 nM
Kd [2]: 24 nM
Kd [3]: 450 nM
Kd [4]: 10000 nM
Kd [5]: 68 nM
Substance: Chd1 chromatin remodeler (from UniProt P32657 1-1468) (enzyme)
